Reference: US20250064952A1 (ACCELERON PHARMA, published 2025)

B2: GDF3 (ligand, UniProt Q9NR23 251-364, looked up)
chain: AAIPVPKLSCKNLCHRHQLFINFRDLGWHKWIIAPKGFMANYCHGECPFSLTISLNSSNYAFMQALMHAVDPEIPQAVCIPTKLSPISMLYQDNNDNVILRHYEDMVVDECGCG
notes: also called VGR2
B3: activin A (ligand, UniProt P08476 311-426, looked up)
chain: GLECDGKVNICCKKQFFVSFKDIGWNDWIIAPSGYHANYCEGECPSHIAGTSGSSLSFHSTVINHYRMRGHSPFANLKSCCVPTKLRPMSMLYYDDGQNIIKKDIQNMIVEECGCS
B4: GDF11 (ligand, UniProt O95390 299-407, looked up)
chain: NLGLDCDEHSSESRCCRYPLTVDFEAFGWDWIIAPKRYKANYCSGQCEYMFMQKYPHTHLVQQANPRGSAGPCCTPTKMSPINMLYFNDKQQIIYGKIPGMVVDRCGCS
notes: also called BMP11
B5: BMP9 (ligand, UniProt Q9UK05 320-429, looked up)
chain: SAGAGSHCQKTSLRVNFEDIGWDSWIIAPKEYEAYECKGGCFFPLADDVTPTKHAIVQTLVHLKFPTKVGKACCVPTKLSPISVLYKDDMGVPTLKYHYEGMSVAECGCR
notes: also called GDF2
B6: ActRIIB-Fc homodimer (Fc fusion, human, UniProt Q13705 19-137, looked up, not shown: a dimerising Fc or GST)
chain: SGRGEAETRECIYYNANWELERTNQSGLERCEGEQDKRLHCYASWRNSSGTIELVKKGCWLDDFNCYDRQECVATEENPQVYFCCCEGNFCNERFTHLPEAGGPEVTYEPPPTAPTLLT
notes: extracellular domain; also called unmodified ActRIIB-Fc homodimer; ActRIIB-Fc:ActRIIB-Fc homodimer
B7: BMP10 (ligand, UniProt O95393 317-424, looked up)
chain: NAKGNYCKRTPLYIDFKEIGWDSWIIAPPGYEAYECRGVCNYPLAEHLTPTKHAIIQALVHLKNSQKASKACCVPTKLEPISILYLDKGVVTYKFKYEGMAVSECGCR

Columns and labels:
BMP9 = target: B5; test: SPR (Biacore), 37 C, anti-Fc capture, ligand in flow
Experimental: (§1) A Biacore™-based binding assay was used to compare the ligand binding kinetics of an ActRIIB-Fc:ActRIIB(L79E)-Fc heterodimer with those of unmodified ActRIIB-Fc homodimer. Fusion proteins were captured onto the system using an anti-Fc antibody. Ligands were then injected and allowed to flow over the captured receptor protein at 37° C. Results are summarized in the table below, in which ligand off-rates (kd) most indicative of effective ligand traps are denoted in bold.

activin B = target: T1, activin B (UniProt P09529 293-407); test: as above
T1 sequence (looked up): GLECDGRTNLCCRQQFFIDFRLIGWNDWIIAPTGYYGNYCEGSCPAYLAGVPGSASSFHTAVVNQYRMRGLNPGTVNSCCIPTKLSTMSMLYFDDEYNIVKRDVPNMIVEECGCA
Experimental: as §1

BMP10 = target: B7; test: as above
Experimental: as §1

GDF11 = target: B4; test: as above
Experimental: as §1

activin A = target: B3; test: as above
Experimental: as §1

GDF8 = target: T2, GDF8 (UniProt O14793 267-375); test: as above
T2 construct: also called myostatin
T2 sequence (looked up): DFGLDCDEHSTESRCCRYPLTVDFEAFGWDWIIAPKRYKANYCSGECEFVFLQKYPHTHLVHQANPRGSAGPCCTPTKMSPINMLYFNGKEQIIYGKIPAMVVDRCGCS
Experimental: as §1

BMP6 [1] = target: T3, BMP6 (UniProt P22004 382-513, limits assumed); test: as above
T3 sequence (looked up): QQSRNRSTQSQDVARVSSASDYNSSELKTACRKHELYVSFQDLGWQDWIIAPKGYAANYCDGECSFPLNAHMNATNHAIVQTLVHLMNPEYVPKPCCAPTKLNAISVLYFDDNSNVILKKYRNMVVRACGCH
Experimental: as §1

GDF3 = target: B2; test: as above
Experimental: as §1

ActRIIB-Fc homodimer [2] = target: B6; test: SPR (Biacore), anti-Fc capture, ligand in flow
Experimental: (§2) A Biacore™-based binding assay was used to compare ligand binding selectivity of the ActRIIB-Fc:ALK4-Fc heterodimeric complex described above with that of ActRIIB-Fc and ALK4-Fc homodimer complexes. The ActRIIB-Fc:ALK4-Fc heterodimer, ActRIIB-Fc homodimer, and ALK4-Fc homodimer were independently captured onto the system using an anti-Fc antibody. Ligands were injected and allowed to flow over the captured receptor protein. Results are summarized in the table below, in which ligand off-rates (kd) most indicative of effective ligand traps are denoted by bold font.

ActRIIB-Fc homodimer [3] = target: B6; test: SPR (Biacore), anti-Fc capture, ligand in flow; remark: listed apart in the source
Experimental: (§3) A Biacore™-based binding assay was used to compare ligand binding selectivity of the ActRIIB-Fc:ALK7-Fc heterodimeric complex described above with that of ActRIIB-Fc and ALK7-Fc homodimeric complexes. The ActRIIB-Fc:ALK7-Fc heterodimer, ActRIIB-Fc homodimer, and ALK7-Fc homodimer were independently captured onto the system using an anti-Fc antibody. Ligands were injected and allowed to flow over the captured receptor protein. Results are summarized in the table below, in which ligand off-rates (kd) most indicative of effective ligand traps are denoted by bold font.

ActRIIB-Fc homodimer [4] = target: B6; test: SPR (Biacore), 37 C, anti-Fc capture, ligand in flow
Experimental: as §1

BMP6 [5] = target: T3, BMP6; test: SPR (Biacore), anti-Fc capture, ligand in flow
Experimental: as §2

activin AC = target: T4, activin AC (UniProt P08476 311-426; P55103 237-352); test: SPR (Biacore), anti-Fc capture, ligand in flow
T4 construct: Heterodimer of beta A and beta C
T4 sequence (looked up) 1: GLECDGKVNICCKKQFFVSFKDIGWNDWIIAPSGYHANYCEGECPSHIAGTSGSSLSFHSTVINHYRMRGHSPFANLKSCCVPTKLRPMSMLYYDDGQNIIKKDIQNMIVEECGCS
T4 sequence (looked up) 2: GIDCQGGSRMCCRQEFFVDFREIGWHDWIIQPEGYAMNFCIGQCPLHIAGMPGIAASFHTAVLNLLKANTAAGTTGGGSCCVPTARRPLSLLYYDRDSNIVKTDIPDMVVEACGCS
Experimental: as §3

BMP5 = target: T5, BMP5 (UniProt P22003 317-454, limits assumed); test: SPR (Biacore), anti-Fc capture, ligand in flow
T5 sequence (looked up): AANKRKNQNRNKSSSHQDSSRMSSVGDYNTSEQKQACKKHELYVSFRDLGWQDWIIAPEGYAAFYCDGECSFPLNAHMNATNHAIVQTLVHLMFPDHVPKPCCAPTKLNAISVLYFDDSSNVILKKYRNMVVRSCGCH
Experimental: as §3

BMP6 [6] = target: T3, BMP6; test: SPR (Biacore), anti-Fc capture, ligand in flow; remark: listed apart in the source
Experimental: as §3

B1: ActRIIB-Fc:ActRIIB(L79E)-Fc heterodimer (Fc fusion)
chain 1: GRGEAETRECIYYNANWELERTNQSGLERCEGEQDKRLHCYASWRNSSGTIELVKKGCWLDDFNCYDRQECVATEENPQVYFCCCEGNFCNERFTHLPEAGGPEVTYEPPPTAPTGGGTHTCPPCPAPELLGGPSVFLFPPKPKDTLMISRTPEVTCVVVDVSHEDPEVKFNWYVDGVEVHNAKTKPREEQYNSTYRVVSVLTVLHQDWLNGKEYKCKVSNKALPAPIEKTISKAKGQPREPQVYTLPPSRKEMTKNQVSLTCLVKGFYPSDIAVEWESNGQPENNYKTTPPVLKSDGSFFLYSKLTVDKSRWQQGNVFSCSVMHEALHNHYTQKSLSLSPGK
chain 2: GRGEAETRECIYYNANWELERTNQSGLERCEGEQDKRLHCYASWRNSSGTIELVKKGCWEDDFNCYDRQECVATEENPQVYFCCCEGNFCNERFTHLPEAGGPEVTYEPPPTAPTGGGTHTCPPCPAPELLGGPSVFLFPPKPKDTLMISRTPEVTCVVVDVSHEDPEVKFNWYVDGVEVHNAKTKPREEQYNSTYRVVSVLTVLHQDWLNGKEYKCKVSNKALPAPIEKTISKAKGQPREPQVYTLPPSREEMTKNQVSLTCLVKGFYPSDIAVEWESNGQPENNYDTTPPVLDSDGSFFLYSDLTVDKSRWQQGNVFSCSVMHEALHNHYTQKSLSLSPG
notes: also called ActRIIB-Fc:ActRIIB(L79E)-Fc heteromer
BMP9
  Kd: > 2800 pM
Activin B
  Kd: 25 pM
  koff: 0.00021 s⁻¹
  kon: 8.3e+06 M⁻¹ s⁻¹
BMP10
  Kd: 42 pM
  fold faster off-rate vs ActRIIB-Fc homodimer: ~10 fold
  koff: 0.002 s⁻¹
  kon: 4.8e+07 M⁻¹ s⁻¹
GDF11
  Kd: 9 pM
  koff: 0.00036 s⁻¹
  kon: 4e+07 M⁻¹ s⁻¹
Activin A
  Kd: 170 pM
  fold faster off-rate vs ActRIIB-Fc homodimer: ~10 fold
  koff: 0.0015 s⁻¹
  kon: 8.8e+06 M⁻¹ s⁻¹
GDF8
  Kd: 150 pM
  koff: 0.0005 s⁻¹
  kon: 3.4e+06 M⁻¹ s⁻¹
BMP6 [1]
  Kd: 56 pM
  koff: 0.018 s⁻¹
  kon: 3.3e+08 M⁻¹ s⁻¹
GDF3
  Kd: 10000 pM
  koff: 0.0059 s⁻¹
  kon: 580000 M⁻¹ s⁻¹

## B2
ActRIIB-Fc homodimer [2]
  Kd: 1500 pM
  koff: 0.0022 s⁻¹
  kon: 1.4e+06 M⁻¹ s⁻¹
ActRIIB-Fc homodimer [3]
  Kd: 1500 pM
  koff: 0.0022 s⁻¹
  kon: 1.4e+06 M⁻¹ s⁻¹
ActRIIB-Fc homodimer [4]
  Kd: 1500 pM
  koff: 0.0022 s⁻¹
  kon: 1.4e+06 M⁻¹ s⁻¹

## B3
ActRIIB-Fc homodimer [2]
  Kd: 19 pM
  koff: 0.00023 s⁻¹
  kon: 1.2e+07 M⁻¹ s⁻¹
ActRIIB-Fc homodimer [3]
  Kd: 11 pM
  koff: 0.00014 s⁻¹
  kon: 1.3e+07 M⁻¹ s⁻¹
ActRIIB-Fc homodimer [4]
  Kd: 25 pM
  koff: 0.00019 s⁻¹
  kon: 7.4e+06 M⁻¹ s⁻¹

## B4
ActRIIB-Fc homodimer [2]
  Kd: 2 pM
  koff: 0.00011 s⁻¹
  kon: 5e+07 M⁻¹ s⁻¹
ActRIIB-Fc homodimer [3]
  Kd: 2 pM
  koff: 0.00015 s⁻¹
  kon: 9.6e+07 M⁻¹ s⁻¹
ActRIIB-Fc homodimer [4]
  Kd: 4 pM
  koff: 0.00017 s⁻¹
  kon: 4.1e+07 M⁻¹ s⁻¹

## B5
ActRIIB-Fc homodimer [2]
  Kd: 77 pM
  koff: 0.0011 s⁻¹
  kon: 1.4e+07 M⁻¹ s⁻¹
ActRIIB-Fc homodimer [3]
  Kd: 10 pM
  koff: 0.001 s⁻¹
  kon: 1.2e+08 M⁻¹ s⁻¹
ActRIIB-Fc homodimer [4]
  Kd: 250 pM
  koff: 0.0013 s⁻¹
  kon: 5e+06 M⁻¹ s⁻¹

## B6
BMP6 [5]
  Kd: 190 pM
  koff: 0.0068 s⁻¹
  kon: 3.2e+07 M⁻¹ s⁻¹
Activin AC
  Kd: 160 pM
  koff: 0.0031 s⁻¹
  kon: 2e+07 M⁻¹ s⁻¹
BMP5
  Kd: 2900 pM
  koff: 0.075 s⁻¹
  kon: 2.6e+07 M⁻¹ s⁻¹
BMP6 [6]
  Kd: 160 pM
  koff: 0.0039 s⁻¹
  kon: 2.4e+07 M⁻¹ s⁻¹
BMP6 [1]
  Kd: 56 pM
  koff: 0.0074 s⁻¹
  kon: 1.3e+08 M⁻¹ s⁻¹

## B7
ActRIIB-Fc homodimer [2]
  Kd: 11 pM
  koff: 0.00026 s⁻¹
  kon: 2.3e+07 M⁻¹ s⁻¹
ActRIIB-Fc homodimer [3]
  Kd: 25 pM
  koff: 0.00015 s⁻¹
  kon: 5.9e+06 M⁻¹ s⁻¹
ActRIIB-Fc homodimer [4]
  Kd: 4 pM
  koff: 0.0002 s⁻¹
  kon: 5.1e+07 M⁻¹ s⁻¹
